Test: soluble on expression in E. coli; label from the status in PepcDB or PDB records

Soluble on expression in E. coli, not soluble:
MGSDKIHHHHHHMRERTVDYSFCGMVRSRERLARQIVFHHIPKTAGSSFNQILRTLYRDDEVCDAALDDELDEVMADETRRYELFVGHFSFDALHRHFGGATRLTFLRDPVQRCISQYHNWHDASRYSDAWIGRSDTNPDVIKALKMTSEMSLCEFVSSDNLVISDSAQNMMTRYLAPSVEWKKERGYYDAELVEKAKRNLVEYFHFFGLTEQFDRSLVLLAHTLGIRPWERSDALLTNRNPKKASFDSVYNTTPEEGGVLRDYNLMDIELYEFAVKEFNRRFDAGYQKLVECAFEYLADKDTRDMGNAGDFYAFDMTNAVGARGLHFLESTRLPCGADVLGRWTGLEPRAVWEIPLRAGRDSHVVIEVDYIDSVSPEALAPEHFTLNGMPARQHAFSAEGSIQRLRLVFSAGAALAGRMLHTLKLTTPLVRAEDGTRDVGVLLLRLQSYSV
MGSDKIHHHHHHMRGIGLTHAFADISGLAFDRLFMVTETDGTFITARQFPQMVKFIPAPLHDGLHLSAPDGSSAVVRFSDFATQAEPTEVWGNHFTALIAPAAVNQWLSGFFKRDVQLRWLGPQLTRRVKRHDAVPLSFADGYPYLLANEASLRDLQQRCPASVSIEQFRPNLVVTGAAAWDEDSWKVIRIGEVVFDVAKPCSRCIFTTISPERGQKHPAGEPLETLKRFRTALDNGDVDFGQNLIARNSGVIRVGDEVEILTRGPAKAYGAGESDDTPAPEAQQQATVAIEWQGQQFTGNNQQVLLEQLEQQGIRVPYSCRAGICGSCRIRLEEGEVSPLKKNAVAGDGTILACSCVPKTALRLAP
MGSDKIHHHHHHMRHENRVAWTEGMFLRVQHFQQSDRWTERLVRSVARSLTPYPWGILEIGLDRSALAIGQFALSGLRGMLPDGTPFDAPEDTDLPAALELDESVKNAVIYLALPARQPGKADMAQTGTSAVNSVRLVASPYEAPDANVETDFLAPIDVGRLNLKLLKTGDDLAGYELLGLARVVEVRSDKAVLLDPDFIPASLNCTASSRLHELMTELLGIVRHRAEAIAERIGDPTIRGTAEVGDYFLLQILNRADPLLKHALSNATRLHPIQFYEQCIQLAGELATFTMESKRATDFPAYRHDDLKATFGAVFEDLRTSLSSVLAQSAVAIELVERRHGVRVGTINDRSLLRDAGFVLAVRADMSAEDVRRTLPARIKVGPVERIAELVNVALPGIPVRPLPVLPRQLPYRAGTIYFELDTKTPLWKQLETSGAIALHLAGDFPGLELEMWALRE
MGSDKIHHHHHHMRHTILFIIDGLPGGGAERVVITLAGEMAARGHQVTIASLQASLDYAIPAGVDYLLVEDRYRGPLRRQTEIRRRARQLDGALRRHFAGRRIDLAVSNLPKTDRIVAACPYLEQAWLCLHCAIQAGQLAERSGIRRWLKKRQLVRTYSGRKLITVCQALQRDVLDCGIRPARMEAIYNPFDLDWIRRRAAQPCPMDGEDFILHVGRFNHQKRHDRLLEAFKLSGYPGKLALLGQGGQAELSAIQVQAERLGVADRLVVAGFTDNPYAYMRAARALVLSSDYEGFGNVLVEALACGTPVASTNCPEGPAEILTGPLSIGLSELNGQALADAIKRVLASRPLAGPEQLAAFAQDAVVERYLALVNQ
MGSDKIHHHHHHMRILTFTGKGGVGKTSVSAATAVRLSEMGHRTLVLSTDPAHSLSDSFNIQLGAEPTKIKENLHAIEVNPYVDLKQNWHSVQKYYTRIFMAQGVSGVMADEMTILPGMEELFSLLRIKRYKSAGLYDALVLDTAPTGETLRLLSLPDTLSWGMKAVKNVNKYIVRPLSKPLSKMSDKIAYYIPPEDAIESVDQVFDELEDIREILTDNVKSTVRLVMNAEKMSIKETMRALTYLNLYGFKVDMVLVNKLLDAQENSGYLEKWKGIQQKYLGEIEEGFSPLPVKKLKMYDQEIVGVKSLEVFAHDIYGDTDPSGMMYDEPPIKFVRQGDVYEVQLKLMFANPVDIDVWVTGDELFVQIGNQRKIITLPVSLTGLEPGDAVFKDKWLHIPFDLEKQGQHHRTREYNKA
MGSDKIHHHHHHMRKVVEVSGVRKSFGELRVLDKVDFYAEEGDFKVIVGENGSGKSTLLKIMIGLLLPDDGEVKVLGVDVKKHWKKLSARIGVVLANERSLYWKLTAWENLDIFGGVYGVPKKVRRERMEELLKRFGLFEYKDKPVEEFSTGMRKKLMICKALIHDPEVLFIDEILNGLDPPSVREMVGFLDERNRRGLTIVMISHVLHVLPENACVVLLRNGRVQMEVRYKDIRSERSEVYEVFENLIRGRNMDEEDTPSGSEGDEDKA
MGSDKIHHHHHHMRLIGLTDLHNRIINFDKLLRYKPDAILISGDFTKCSFAKSANQNDSFEVITEQDTRIIDFLENLNNKIKVFIIPGNWENLDTIQKMNESGLNIDEKLVKFHDTIFIGLGGSNKTPICSPNEYSEDEIYERFIKILKNEKTDVKNNFILLSHVPPKDTMADRCEAGHVGSSAVRKIIEEFKPVLCACGHVHESRSIDKIGNTLIVNPSSTGFFIYDTKTKNLEIHDL
MGSDKIHHHHHHMRLPPLKALPVFEAAARLNSFSAASEELAITQSAVSHQIKQLETYLGERLFWRSGRRVTLTDEGRQYFDAIGSALLQIERASEQLLGHEESRLRLSVFSSFAVRWLVPRLPDLQRLHPQIDLALEMSSENPVLSDRVADCFITIHRDSRAYSYDLLYEERLFPVCSQDYWQRMRRELGRDVEPERRDEQPVSPGEMAGFPLLSTHSIFDRPAGDWEAWYSAAGELMPTGTRVQHFSHMLLALEAARFHQGIALTNDYMLSTRKDSEDFVRLPTHSVVTGDKFYFAWKTSRRRERGIQTLRRWLVDEAIRGGLRGE
MGSDKIHHHHHHMRRQLNGQMFVWLHVFACAARHLSFTRCAEELHITPGAVSQQMRQLEERLGYRLFLRRARGVELSAEGQRLAQTVAEAYGSIEAELLRLDAGEIRGTLRVRSIPSFLAKWLTPRLPRFQQRYPDIELRLVAEDSAQALTPGDFDLAIDLNDGSYPGMLSTPLLDEQIFPVCSPALLRGRPPLHGPADLAHYPLLHDITAWRGSSEYAEWEFYLEGIGAAGLDVRRGHTFNRNHLTIEAAIAGIGVAIARRTLLNDELERGALIVPFGVPIANHKRYVVHYPPGGLNQPGARAVHDWLVEEARGFRVLHPLNKE
MGSDKIHHHHHHMRRSSVFAGSDGQLDLFVGAGSNIAARDAQDLMAWPFFSLAKTKRVRPIDFRMGEVSILVEATAEHGMATIWDADVLIWVASQIVEARDCGRSTSRLIAATPHEILSFTRRGTGKASYERLKAGLDRLQSTTVATSIRQPHQRRRHRFSWINEWRECLDSSGRALGIEMIVPDWFYEGVLDAALVLTIDRAYFGLTGGLERWLYRIVRKHGGKQKGGWSFDVAHLHLKSGALSPLKRFAFELRDIVRRQPLPGYRLELEHALGRERLSFVCIPEDSFDAAMRRLGYSGVDNP
MGSDKIHHHHHHMRSLSEFIENSQDKREIQRALAVKMLLEGYTHVAIQSILDVSSGFISKWKKAFFTFGVEGLKLRYKGSQGFLNPQQRYCVIEWLKTKEKWNLSELEYEIASSYGVVFESKQSYYDLFDAAGISWKKTQAHNPKYDEELVASKKKEICELLETRRSEIESGKLVVFMVDECHLLWGDICGYVWGKTSERISVPVVNARDKQTYFGAIDYKTHEFITYAAKKGDSQNMINFLEYLQSQRPGANLLIIWDGASYHRSNAIQDYLDSLNRQLEQEQWLITCKRFAPNAPQQNPVEDIWLQAKKLIREFYFFCHSFSVVKALFELAVNGQIFDFPKLNEYGNFSQMI
MGSDKIHHHHHHMRTPVPRVAAIHDLSGFGRTSLTVAMPVLSSMGVQVCPLPTAVLSTHTSGFENFSFVDLTEQMHSILDHWQSLNLKFDAVYSGFLGSPEQVDIVARCIDMFRTPDGLAVVDPVMGDNGEMEPTMTLEMVHRMRWLVTKADIITPNFTEAAFLLDEKYTTEATVSTVKDWLRRLTAMGPSIAIITSVPVHGDERRSAVMAYNRRHDRFWKVDCSYIPAHYPGTGDTFASVVTGALLQGDSLPIAMDRAVQFVTMGIRATFGHNLPSRDGILLERVLDTLRAPVTSSSFELLDNDGEQCACR
MGSDKIHHHHHHMRVDHSTQPVAVLQEPSIVLVIQGVKRAYIGKDIFKFQQGQCLFISIAIPFDCDTLVEREPMLAIAIKFEPQMMAELATKMDKEHRPLIEDFDNKEIKLSCGLNIIEMNSVISDVALRLLNLLRSKQDTAILGEQVKRELIYRVLQAGGSDFIQNLSAIMSRSGVIYTICEIIQRDYYRNLTVQELAKQAGMSVSLFHQAFKKVTNYSPLQYIKITRLHKARDLILNNQMGVAEAAYEVGYVSASQFSREFKRLFGVPPKLSTN
MGSDKIHHHHHHMRVLPFLLPLIPVLLATTITDLPELVVVTVATENTDGLKRLLESAKAFDINIEVLGLGEKWNGGDTRIEQGGGQKIRILSDWIEKYKDASDTMIMFVDAYDVVFNADSTTILRKFFEHYSEKRLLFGAEPFCWPDQSLAPEYPIVEFGKRFLNSGLFMGYGPEMHKILKLKSVEDKDDDQLYYTMIYLDEKLRKELNMDLDSMSKIFQNLNGVIEDVELQFKEDGTPEAYNAAYNTKPLIVHGNGPSKSHLNYLGNYLGNRWNSQLGCRTCGLEVKESEEVPLIALNLFISKPIPFIEEVLQKIAEFDYPKEKIALYIYNNQPFSIKNIQDFLQKHGKSYYTKRVINGVTEIGDREARNEAIEWNKARNVEFAFLMDGDAYFSEPKVIKDLIQYSKTYDVGIIAPMIGQPGKLFTNFWGAIAANGYYARSEDYMAIVKGNRVGYWNVPFITSAVLFNKEKLEAMKDAYSYNKNLDPDMSMCKFARDNGHFLYIDNEKYYGFLIVSDEYAETVTEGKWHPEMWQIFENRELWEARYIHPGYHKIMEPEHVVDQACPDVYDFPLMSERFCEELIEEMEGFGRWSDGSNNDKRLAGGYENVPTRDIHMNQVGFERQWLYFMDTYVRPVQEKTFIGYYHQPVESNMMFVVRYKPEEQPSLRPHHDASTFSIDIALNKKGRDYEGGGVRYIRYNCTVPADEVGYAMMFPGRLTHLHEGLATTKGTRYIMVSFINP
MGSDKIHHHHHHMRYDIVIIGGAIVGSSIAYYLREEGFSGSIALIERDPQFAHAATTLSMASIRQQFSIPENIRLSQFTLKLFRRLKETFGTDADIGFREGGYLILAGENGLPVLKANHDAQVAEGADIVLEDAEQLTRRFAWLSAEGISAGAYGRTGEGWFDAHAMLMLFRKALRDKKIDFIAASVTGIARDGDRVTGVSLDNGQTLEAGIVVNAAGPNAGKVAALAGLALPVEPRKRNVFVFEAREKYADMPLLVDPSGIYVRPEGSVYLTGGAEPEEGDGPADPSDFEVDWPLFEEVIWPVLATRIPAFEAIKATRAWAGHYDYNTLDQNAVIGPHPEVGNFIFANGFSGHGLQQAPAVGKALAEFLVHGGYRTIDCSAFGYGRVAEGRAFRELNVI
MGSDKIHHHHHHMRYSPESLLAFITTVDAGSFSAAARRLHKSQSTISAAIANLEADLGLTLFDRAGHQPVLTLAGRKVLSHVQAILSASEELDELAIRLADHIEPRLTFVLSDIWQATHYEPVIQRFAHNFPDIEFECLVAEGDDVIDLLQMDRAHVGLLRAQTDYPPDIAAARLQVKTEMAVFVSVAHPLATEKTVTRSQLATVRQLYLNTYKRSDRLQPEGIVWSAPSYLMLLEMAQQGHGWSSLPRWLVAQYDRQKLVELPVSGWPQWIDVDVVWSKPHPPGPAGLWMIDNLLAQQESTPP
MGSDKIHHHHHHMSCLVLPLVSVGNIPQLSIDWLLNSQANEWEYLEALDSKYLVEFVGPLDRPEDGSDSLYKDADMKYSSALEVFYNKKRGLFAIQQRTPLVSVNYLNNFIVEIILPFLSKYNISEICIWDSLYAMEDENGVIVRPQEVYSLGEFYFDDEAELLSNLHLNDQESMVNNWLHFTPTSFQDKISVDQPIFKILFQILNASQRPKALRSIKYCSCLANEGDNSLDSQQFLQWIISQKVIKNAPPIVKFVRPISWQGAYGMADARDKFVDLYN

Source: the DeepSol protein solubility set
